B1: anti-E-selectin antibody 0039 chimera (antibody, human IgG1, kappa, V domains shown)
VH: QVQLKETGPGLVQPTQTLSITCTVSGFSLTGYYMQWVRQTPGKGLEWMGFIRSSGSTEYNSEFKSRLSISRDTSKNQVFLKMNSLKTEDTGVYYCARCPYKYSSFVYVGVMDAWGQGAPVTVSS
VL: EIVMTQSPTSMSTSIGERVTLNCKASQTVGINVDWYQQTPGQPPKLLIYGASNRHTGVPDRFTGSGFGRDFTLTISNVEAEDLAVYCCLQYGSIPHTFGPGTKLELKR
notes: rat VH/VL on effector-null human IgG1 and human kappa
B2: anti-E-selectin antibody 0158 chimera (antibody, human IgG1, kappa, V domains shown)
VH: QVQLKESGPGLVQPSETLSLTCTVSGFSISTYNVHWLRQPPGKGLEWMGMMWSGGSPDYNSALKSRLSISRDTSKNQVFLKMNSLQSEDTTTYYCARWGGGFDYWGQGVMVTVSS
VL: DIVLTQSPTTLSVTPGETVSLSCRASHSIGTNLHWYQQKTNESPRLLIKFTSQSISGIPSRFSASGSGTDFTLNINNVEFDDVSSYFCQQTQSWPLTFGSGTKLEIKR
notes: as for B1
B3: anti-E-selectin antibody 0180 chimera (antibody, human IgG1, kappa, V domains shown)
VH: EVQLQQSGAELGKPGTSVKLSCKVSGYKIRSSYMHWVNQRPGKGLEWIGRIDPANGNTIYGDKFKSKATLTSDTSSNTAYIQLSQLKSDDTAIYFCAIDIGTTFDYWGQGVMVTVSS
VL: DIQMTQSPSFLSASVGDRVTINCKASQHINRYLNWYQQKLGEAPKLLIYDANNLQTGIPSRFSGSGSGTDFTLTISSLQPEDVATYFCLQHNSWPNTFGAGTKLELKR
notes: as for B1
B4: anti-E-selectin antibody 0164 chimera (antibody, human IgG1, kappa, V domains shown)
VH: EVQLQQSGAEFGKPGTSVKLSCKVSGYNIRSSYMHWVNQRPGKGLEWIGRIDPANGNTIYAEKFKIKAILTADSSSNTAYMQLSQLKSDDTAIYFCAMDLYSTSEYWGQGVMVTVSS
VL: B3 VL with A25T, H28N, D50N, N53S, G64A, S76N, H91D, N96L, A100S, L106I
notes: as for B1
B5: anti-E-selectin antibody 0159 chimera (antibody, human IgG1, kappa, V domains shown)
VH: EVQLQQSGAELGKPGTSVKLSCKVSGYNIRSTYMHWVSQRPGKGLEWIGRIDPANGNTIYAEKFKRKATLTADTSSNTAYMQLSQLKSDDRAIYFCAMEVRVSFEYWGQGVMVTVSS
VL: DIQMTQSPSFLSASVGDRVTINCKASQNINKYLDWYQQKLGEGPKLLIYYTNNLHTGIPSRFSGSGSGTDFTLTISSLQPEDVATYFCLQHDSGYTFGAGTKLELKR
notes: as for B1
B6: anti-E-selectin antibody 0170 chimera (antibody, human IgG1, kappa, V domains shown)
VH: EVQLQQSGAELGKPGTSVKLSCKVSGYSIRSTYMHWVNQRPGKGLEWVGRIDPANGNTIYAERFKNKATLTADTSSNTAYMQLSQLKSDDTAIYFCAVEILGIFDYWGQGVMVTVSS
VL: B5 VL with N30D, G43A, I48M, Y50N, N53S, D92N
notes: as for B1

Numbering of substitutions follows the chain as printed.

One assay deals with T1, human E-selectin, cell-surface expressed (human, UniProt P16581 22-610).
T1 construct: also called CHO-human E-selectin cells; human CHO-E
T1 sequence: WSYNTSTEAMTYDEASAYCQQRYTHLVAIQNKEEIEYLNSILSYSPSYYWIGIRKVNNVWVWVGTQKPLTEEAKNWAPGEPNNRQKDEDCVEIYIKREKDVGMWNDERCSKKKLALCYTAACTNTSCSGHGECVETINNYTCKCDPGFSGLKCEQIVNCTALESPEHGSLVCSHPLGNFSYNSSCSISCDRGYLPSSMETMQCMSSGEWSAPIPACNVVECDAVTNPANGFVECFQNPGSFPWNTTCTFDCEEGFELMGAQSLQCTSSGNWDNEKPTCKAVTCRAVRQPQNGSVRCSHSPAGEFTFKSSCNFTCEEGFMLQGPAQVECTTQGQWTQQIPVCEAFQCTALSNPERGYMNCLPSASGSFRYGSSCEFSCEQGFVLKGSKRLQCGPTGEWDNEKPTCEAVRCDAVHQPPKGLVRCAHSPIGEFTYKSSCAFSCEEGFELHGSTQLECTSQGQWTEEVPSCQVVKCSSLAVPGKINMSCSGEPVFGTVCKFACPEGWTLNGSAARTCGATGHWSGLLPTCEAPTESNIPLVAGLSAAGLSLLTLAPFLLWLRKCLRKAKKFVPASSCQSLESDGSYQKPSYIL
Nature of the assay: flow cytometry, CHO cells. As for the experimental part: (§1) Cells were maintained in growth medium at 37° C., 5% CO₂ and 95% air in a humidified incubator. Methotrexate or Zeocin were removed from the medium prior to culture for experiments. CHO-E selectin cells or P-selectin cells were detached from T-150 flasks using citric saline (135 mM KCl, 15 mM sodium citrate) and immediately re-calcified with the addition of CaCl₂) to the detached cells to a final concentration of 1 mM. Growth media was immediately added to the detached cells, then centrifuged at 300×g for 5 minutes at room temperature to pellet the cells. Cells were plated into 96-well V-bottom plates in cold CHO buffer consisting of phosphate buffered saline (PBS), pH 7.4 containing bovine serum albumin (BSA; Sigma-Aldrich) at final concentration of 1%, calcium chloride at final concentration of 1 mM, and sodium azide at a final concentration of 0.1%, for 5 minutes on wet ice. After incubation, the cells were centrifuged at 300×g for 2 minutes at 4° C. to remove the buffer.
(§2) After incubation, antibodies were removed and the cells were washed three times by centrifugation at 300×g for 1 minute at 4° C. and resuspended in cold CHO buffer. The washed cells were incubated for 30 minutes on wet ice with 100 μL of a 1:1000 dilution of APC-conjugated AffiniPure F(ab′)₂ Fragment Goat Anti-human IgG, Fcγ (Jackson Imnnunoresearch). The cells were washed three or four times prior to resuspension in CHO buffer for flow cytometric analysis. A Becton Dickinson LSRFortessa instrument using 640 nanometer laser line was used to acquire cell fluorescence data. Geometric mean fluorescence of cells was analyzed by FlowJo software package (FlowJo, LLC) and plotted against antibody concentration. The estimated EC₅₀ values were calculated using nonlinear regression analysis in the Prism suite (GraphPad, version 8) (Table 8).
With B1, the 50% effective concentration (EC50) was 4.99 nM.

The molecule B2 came in with an EC50 of 3.75 nM.

B3: it took 4.31 nM to reach a half-maximal effect (EC50).

B4 gave an EC50 of 4.43 nM.

Molecule B5 yielded an EC50 of 2.44 nM.

Molecule B6 yielded an EC50 of 1.99 nM.

The target of the next assay is T2, cynomolgus monkey E-selectin, cell-surface expressed (cynomolgus monkey, UniProt P16581 22-610 (human entry)).
T2 construct: also called CHO-cynomolgus monkey E-selectin cells; cynomolgus monkey CHO-E
T2 chain: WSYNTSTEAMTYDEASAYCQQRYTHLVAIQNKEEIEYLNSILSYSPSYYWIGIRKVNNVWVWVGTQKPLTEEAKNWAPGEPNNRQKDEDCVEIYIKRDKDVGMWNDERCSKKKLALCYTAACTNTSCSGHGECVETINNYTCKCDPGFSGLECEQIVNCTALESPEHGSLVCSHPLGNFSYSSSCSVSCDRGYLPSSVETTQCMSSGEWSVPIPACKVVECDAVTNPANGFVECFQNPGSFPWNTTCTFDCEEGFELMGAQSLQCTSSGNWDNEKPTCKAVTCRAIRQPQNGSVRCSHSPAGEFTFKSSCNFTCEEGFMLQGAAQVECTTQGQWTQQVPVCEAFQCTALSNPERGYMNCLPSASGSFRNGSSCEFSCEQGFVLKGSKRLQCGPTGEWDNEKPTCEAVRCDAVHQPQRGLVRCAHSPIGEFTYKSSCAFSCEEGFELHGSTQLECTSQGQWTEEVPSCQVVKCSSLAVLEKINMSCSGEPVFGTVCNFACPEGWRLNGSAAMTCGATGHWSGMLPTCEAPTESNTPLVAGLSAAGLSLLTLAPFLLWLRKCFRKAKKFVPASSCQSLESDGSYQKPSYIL
Briefly: flow cytometry, CHO cells. As for the experimental part: as §1, §2
The molecule B1 had an EC50 of 4.07 nM.

Turning to B2, the EC50 is 14 nM.

On to B3, for which the EC50 was found to be 3.66 nM.

B4 gave an EC50 of 1.73 nM.

Turning to B5, the EC50 was found to be 3.37 nM.

B6 yielded an EC50 of 3.76 nM.

In the next assay the target is T3, soluble recombinant human E-selectin (R & D Systems, ADP1) (human, UniProt P16581 22-556).
T3 sequence (looked up): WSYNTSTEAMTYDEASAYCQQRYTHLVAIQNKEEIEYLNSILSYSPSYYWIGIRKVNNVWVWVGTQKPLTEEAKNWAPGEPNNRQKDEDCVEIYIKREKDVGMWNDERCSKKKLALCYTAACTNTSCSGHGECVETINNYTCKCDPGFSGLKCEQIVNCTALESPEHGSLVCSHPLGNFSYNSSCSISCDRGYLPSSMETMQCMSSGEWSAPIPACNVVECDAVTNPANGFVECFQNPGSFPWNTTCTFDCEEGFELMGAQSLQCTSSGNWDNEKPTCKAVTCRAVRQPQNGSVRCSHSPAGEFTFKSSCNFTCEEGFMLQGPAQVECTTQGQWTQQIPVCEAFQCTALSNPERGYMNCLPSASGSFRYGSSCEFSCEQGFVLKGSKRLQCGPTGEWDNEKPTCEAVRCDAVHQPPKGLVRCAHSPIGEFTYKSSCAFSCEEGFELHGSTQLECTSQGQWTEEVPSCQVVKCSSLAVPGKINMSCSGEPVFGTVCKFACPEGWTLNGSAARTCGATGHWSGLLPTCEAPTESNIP
Nature of the assay: cell-based or functional assay.
With B1, the “neutralization of HL-60 cell binding under physiological flow to soluble human E-selectin protein IC50 (nM)” value came out at 265 nM.

For B2, the “neutralization of HL-60 cell binding under physiological flow to soluble human E-selectin protein IC50 (nM)” value turned out to be 17.9 nM.

As for B3, the “neutralization of HL-60 cell binding under physiological flow to soluble human E-selectin protein IC50 (nM)” value was found to be 225 nM.

For B4, the “neutralization of HL-60 cell binding under physiological flow to soluble human E-selectin protein IC50 (nM)” value amounted to 1.7 nM.

In the case of B5, the “neutralization of HL-60 cell binding under physiological flow to soluble human E-selectin protein IC50 (nM)” value was 21 nM.

As to B6, the “neutralization of HL-60 cell binding under physiological flow to soluble human E-selectin protein IC50 (nM)” value is 74.2 nM.

Values taken from US20240076386A1 (Pfizer, published 2024).
